According to US5783384, “Selection of binding-molecules” (President and Fellows of Harvard College):

Target: T1, GCN4 basic region peptide with 3-residue linker (monomeric) (UniProt P03069 SEQ:1-24)
T1 chain: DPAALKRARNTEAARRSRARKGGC
Test: EMSA; disulfide-tethered complex, reduction gel shift with 2-ME or DTT, pH 7.5 or 8.5; outcome only in figure
Conditions: protein: synthetic; tags: synthetic peptide, disulfide-tethered to DNA through linker thiol
Procedure: To test if the reduction potential of the disulfide bond corresponds to the affinity of the peptide for the adjacent DNA sequence, wild-type and mutant double-stranded DNA-peptide complexes were incubated in the presence of reducing agents 2-mercaptoethanol (2-ME) or dithiothreitol (DTT). (FIG. 4) The free (lower bands) vs. coupled DNA molecules (upper bands) were resolved on 20% nondenaturing polyacrylamide gel after. The wild-type peptide-DNA complex (wt) was consistently more resistant to reduction than the complex having mutation in either peptide (L, P) or DNA sequence (M3). Peptide-DNA complexes differ with respect to the gel mobility as well. The mutant complexes (L, P, M3) have lower gel mobility than the wild-type complex (wt), although the corresponding free (uncomplexed) DNA molecules run at the same speed.
Annealing of the oligonucleotide-peptide complex with the complementary oligonucleotide was done as described above, in the binding buffer of the same composition and desired pH (7.5 or 8.5). 2-ME or DTT was added and reactions were incubated at defined temperature in a water bath. Glycerol-running dye mixture was added (final concentration of glycerol is 5%) and reactions were loaded on 20% nondenaturing gel and run at low voltage (up to 120 V) for 16–24 hours at room temperature. (See FIG. 4).

B1: WT GCN4 half-site 39-mer (dsDNA)
DNA 1: AAGGTTAAACGTGCAAGTCATCGGTATAGGTCGAGAAGT
DNA 2: ACTTCTCGACCTATACCGATGACTTGCACGTTTAACCTT
modifications: N6-thioalkyl-dA adjacent to the half-site (disulfide tether)
Q: Does B1 bind?
A: binds
